Values quoted from earlier work, collected in article PMC4474783.

Key:
[1] = molecular target: calreticulin (Homo sapiens) (UniProt P27797)
[2] = molecular target: calnexin (Homo sapiens) (UniProt P27824)
[3] = molecular target: calnexin P-domain (Homo sapiens) (UniProt P27824); assay: ITC
[4] = molecular target: calreticulin 189-288 (Homo sapiens) (UniProt P27797)

Kd [1] [µM] | Kd [2] [µM] | Kd [3] [µM] | Kd [4] [µM] | Substance
10 | 10 |  |  | CypB (from UniProt P23284)
 |  | 26 | 9 | ERp57 (from UniProt P30101)
